Measurements: article PMC2848763, “The Puf family of RNA-binding proteins in plants: phylogeny, structural modeling, activity and subcellular localization”

Assays:
GST-AtPum2 PUM-HD [1] = biological target: T1, GST-AtPum2 PUM-HD (Arabidopsis thaliana, UniProt Q9ZW06 614-963); experiment: EMSA; estimated from free RNA; complex unstable, no accurate Kd; 10 mM HEPES pH 7.4, 1 mM EDTA, 50 mM KCl, 1 mM DTT, 0.01% BSA, 0.01% Tween 20; room temperature 1 h; 6% native gel run at 4 C; conditions: protein: recombinant; tags: N-terminal GST (pGEX-6P-1); label: 5' 32P; single strand, 19 nt
T1 sequence: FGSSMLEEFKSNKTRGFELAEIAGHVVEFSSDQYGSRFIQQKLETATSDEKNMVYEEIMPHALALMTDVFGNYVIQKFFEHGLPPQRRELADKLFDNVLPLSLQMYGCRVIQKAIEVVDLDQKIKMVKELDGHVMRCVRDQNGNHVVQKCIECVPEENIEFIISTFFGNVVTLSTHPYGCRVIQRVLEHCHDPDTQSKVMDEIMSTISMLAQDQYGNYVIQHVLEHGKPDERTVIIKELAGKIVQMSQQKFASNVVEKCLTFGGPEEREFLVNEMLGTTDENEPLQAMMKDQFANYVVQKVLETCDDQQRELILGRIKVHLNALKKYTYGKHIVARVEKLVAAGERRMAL

GST-AtPum2 PUM-HD [2] = biological target: T1, GST-AtPum2 PUM-HD; experiment: EMSA; apparent Kd; 200 pM labelled RNA; 10 mM HEPES pH 7.4, 1 mM EDTA, 50 mM KCl, 1 mM DTT, 0.01% BSA, 0.01% Tween 20; room temperature 1 h; 6% native gel run at 4 C; conditions: protein: recombinant; tags: N-terminal GST (pGEX-6P-1); label: 5' 32P; single strand, 19 nt

B1: mutant NRE1 (G to U) (ssRNA)
RNA: CCAGAAUUUUAUAUAUUCG
Kd (GST-AtPum2 PUM-HD [1]): ~354 nM

B2: wildtype NRE1 (hunchback NRE1 BoxB) (ssRNA)
RNA: CCAGAAUUGUAUAUAUUCG
Kd (GST-AtPum2 PUM-HD [2]): 10.6 nM
